Experimental data as given in the supplement of paper PMC10567573.

B1: ZNF207 (parent)
chain: FPSAGQAQAAVQGPVGTDFKPLNS
B2: C19orf51 (parent)
chain: FAPQTGARPSETFARFCKSQESAL

Variants of: B1
Test: protein stability index of a GFP-peptide fusion (GPS, HEK-293T) (PSI 1-6); higher = more stable
Details: c terminus: a fixed tail appended
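Further: lentivirally expressed fusions sorted by FACS into six bins by GFP to DsRed ratio, PSI derived from sequencing read proportions per bin multiplied by bin number.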

Protein stability index, by site and new letter:
N23: Q 3.22, M 3.17, A 2.88, K 3.48, R 3.91, L 2.71, T 3.45, C 3.37, P 3.03, D 3.55, V 2.93, S 3.25, W 2.01, E 3.44, F 2.41, Y 2.68, H 3.44, I 3.15, G 3.07
P21: M 3.36, L 2.51, V 2.87, S 3.62, Q 3.88, R 3.77, N 3.62, T 3.17, Y 3.31, K 3.69, W 2.67
L22: N 4.33, S 3.95, T 3.64, E 3.81, M 3.69, D 4.46, W 2.69, F 3.61, P 3.63, Y 3.61, G 3.25, K 3.58, H 4.15, R 3.89, V 3.86, I 3.71, A 3.67, C 3.35, Q 2.92
S24: W 1.89, A 3.36, Y 2.63, V 3.19, F 2.63, G 3.15, C 3.31, M 3.08, K 3.71, P 3.54, L 3.12, N 3.92, Q 3.43, E 3.77, T 3.37, R 3.15, H 3.73, D 4.02, I 2.98

Variants of: B2
Test: as above
Details: c terminus: a fixed tail appended

Protein stability index, by site and new letter:
A2: F 1.88, N 1.04, M 1.45, D 3.07, G 2.95, H 1, P 2.16, Y 2.59, K 3.17, T 1.61, W 2.02, S 1.9
C17: Y 2.92, P 1.9, S 1.74, V 2.31, W 3, Q 1.35, I 2.98, N 2.79, D 1.68, L 1.42, H 1.2, E 1.09, A 2.9, G 3.94, M 3.12
K18: C 2.44, T 2.6, P 2.61, H 2.19, Y 1.99, V 2.45, D 1.1, S 2.39, N 1.3, E 1.92, Q 1.81, I 2.29, G 2.56, L 2.2
A7: E 1.77, Q 1.31, D 1.59, F 2.41, K 1.53, I 1.79, M 1.77, P 2.07, T 2.69, H 3.46, L 2, C 2.92
T5: Y 2.78, G 3.11, Q 2.47, E 2.42, P 1.81, D 2.37, A 2.07, N 2.01
R15: H 1.69, Q 1.16, V 3.42, T 2.14, F 1.72, L 2.84, G 2.37, D 1.27, N 3.83, S 1.08, I 2.75, C 3.88, E 2.65, K 2.48, A 2.94
E11: C 2.86, N 3.64, F 3.67, D 1.85, L 2.27, G 1.54, H 2.47, M 3.05, T 1.96, R 2.15, I 1.72, S 3.19, A 1.55, Y 3.29, K 1.03
T12: D 1.99, V 2.77, F 2.96, P 1.82, N 2.66, Q 1.35, L 2.87, G 1.46, E 1.4, H 1.87, Y 2.48, R 2.39, M 2.29
F16: T 2.52, Q 1.54, L 3.42, A 2.44, C 2.62, D 1.77, K 2.31, R 1.4, H 2.07, N 1.93, S 2.79, I 1.89, E 1.54, G 2.38
R8: V 2.1, Q 1.59, G 1.94, I 1.71, K 2.84, P 2.83, D 2.13, T 1.89, M 1.87, W 2.52, H 2.88, L 3.45, A 2.93, Y 1.81, S 2.38, E 2.65
S10: N 1.72, A 2.32, E 1.43, K 2.62, I 2.32, F 2.11, G 2.46, C 2.34, L 1.58, T 2.25, R 2.34, Q 1.96, H 2.76
G6: C 1.06, K 2.51, I 2.25, V 2.13, D 2.04, E 1.67, P 1.95, L 2.07, A 2.12, M 2.32, Q 1.36, T 2.51, S 1.9, Y 1.86, W 2.83, F 2.86
S19: I 2.35, H 4.27, G 2.82, K 2.35, D 2.2, Q 1.43, N 1.31, P 1.77, A 2.85, C 3.45, E 1.1
Q4: L 4.02, R 1.94, S 2.6, C 2.85, D 2, H 2.21, P 1.28, F 1.98, T 2.06, I 2.27, Y 2.21, E 1.84, M 1.65, K 1.99, N 1.69
P9: W 1.65, G 2.57, T 3.29, K 2.47, N 2.23, D 1.23, R 2.62, H 2.82, Y 3.62, E 1.18, M 2.92, I 2.25, C 3.58, L 1.06, Q 2.77
F13: A 1.89, R 1.94, S 1.41, M 1.92, L 2.54, H 1.48, T 1.82, C 3.95, Y 1.49, Q 2.12, G 2, N 2.49, V 2.92, D 1.86, E 1.98, P 1.07, K 2.31, I 1.7
P3: Q 2.72, A 1.05, E 2.64, F 1.7, T 1.98, V 1.95, K 2.51, S 1.61, I 1.72, L 1.5, W 2.66, D 2.79, N 1.96, C 1.62
F1: V 3.3, Y 4.05, G 4.63, E 4.14, C 1.38, D 4.78, S 3.79, T 2.49, M 3.59, Q 3.77, N 3.87, W 2.58, I 2.65, P 3.71, K 3.54
A14: Y 3.2, Q 2.63, T 2.09, R 1.82, L 2.12, V 2.17, I 3.27, E 1.77, M 3.45, G 1.74, C 1.69, F 1.33, S 1.89, N 1.44, D 1.69
